The record followed here is PMC10603098.

The target of assay [1] is homomeric GluA2Q_(flip) AMPA receptor, wild type (rat) (UniProt P19491).
Assay [2] concerns the target homomeric GluA2Q_(flip) E658K AMPA receptor (rat) (UniProt P19491).
In assay [3] the target is GluA1 E651K/GluA2(R) AMPA receptor heteromer (rat) (UniProt P19490).
Assay [4] concerns the target GluA1 E651K/GluA2(R) E658K AMPA receptor heteromer (rat) (UniProt P19490).
In assay [5] the target is GluA1/GluA2(R) AMPA receptor heteromer, wild type (rat) (UniProt P19490).
The target in assay [6] is GluA1/GluA2(R) E658K AMPA receptor heteromer (rat) (UniProt P19490).
In assay [7] the target is GluA tetramers (sum of all co-purified GluA1-4 proteins divided by four) (rat (endogenous in rat brain)). As to the kind of experiment: affinity purification with mass spectrometry; multi-epitope AP-MS: three polyclonal anti-GSG1L antibodies on protein A Dynabeads, 2 h; membranes of adult (P59) rat brain solubilised in CL-47; GSG1L KO rats as negative control; minimum tnR of 0.25 as indicator of specific interaction.

Take “mouse GSG1L (co-expressed, +GSG1L) (from UniProt D3Z7H4 1-322) (natural protein)”: in assay [1], the fast time constant of recovery from desensitization (τ (recovery), two-pulse protocol, 10 mM L-Glu, outside-out patches of HEK293T/17 cells co-expressing GluA2 and GSG1L) was 37.5 ms; the slow time constant of recovery from desensitization (τ (recovery), two-pulse protocol, 10 mM L-Glu, outside-out patches of HEK293T/17 cells co-expressing GluA2 and GSG1L) turned out to be 322 ms. In assay [2], the single time constant of recovery from desensitization of GluA2 E658K co-expressed with GSG1L (the mutation eliminated the ability of GSG1L to slow recovery) came to 48 ms. For the same substance, the time constant of recovery from desensitization (mono-exponential) of heteromers with EK on GluA1 only, co-expressed with GSG1L in assay [3] was 338 ms. In addition, in assay [4], the single time constant of recovery from desensitization of heteromers with EK on both GluA1 and GluA2, co-expressed with GSG1L came to 130 ms. Moreover, in assay [5], the fast time constant of recovery from desensitization of GluA1/A2 heteromers co-expressed with GSG1L was 23.7 ms and the slow time constant of recovery from desensitization of GluA1/A2 heteromers co-expressed with GSG1L came to 548 ms. For the same substance, in assay [6], the fast time constant of recovery from desensitization of heteromers with EK on GluA2 only, co-expressed with GSG1L was 80.6 ms and the slow time constant of recovery from desensitization of heteromers with EK on GluA2 only, co-expressed with GSG1L worked out at 446 ms.
“germ cell-specific gene 1-like protein (GSG1L) (from UniProt D3ZK93 1-322) (natural protein)” yielded a stoichiometry N (GSG1L per GluA tetramer) in assay [7] of 1.74.
